Data from patent US20210187091A1 (DUKE UNIVERSITY, published 2021).
Changes are numbered by the printed parent chain.

Tests used:
Man9-V3 glycopeptide [1] = target: T1, Man9-V3 glycopeptide (HIV-1 clade B JRFL, Man9GlcNAc2 at N301 and at N332; disulfide bridge between C296 and C331 (cyclized); biotin tag); assay: BLI, biotinylated Man9-V3 on streptavidin sensors, antibody in solution, bivalent avidity model
T1 construct: 30-amino acid synthetic V3 glycopeptide based on the clade B JRFL mini-V3 construct (residues 305-320 deleted); captured by its biotin on streptavidin sensors, or tetramerized on streptavidin for sorting; also called Man-V3 glycopeptide; Man9-V3-biotin
T1 peptide: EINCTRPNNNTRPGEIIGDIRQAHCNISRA
Method: Kinetics analyses were performed by global curve fitting using bivalent avidity model and as described in methods (“Affinity measurements” section).
Antibody binding kinetic rate constants (ka, kd) of the Man9-V3 glycopeptide and its aglycone form (16) were measured by Bio-layer Interferometry (BLI, ForteBio Octet Red96) measurements. The BLI assay was performed using streptavidin coated sensors (ForteBio) to capture either biotin-tagged Man₉-V3 glycopeptide or Aglycone-V3 peptide. The V3 peptide immobilized sensors were dipped into varying concentrations of antibodies following blocking of sensors in BSA (0.1%). Antibody concentrations ranged from 0.5 to 150 μg/mL and non-specific binding interactions were subtracted using the control anti-RSV Palivizumab (Synagis) mAb. Rate constants were calculated by global curve fitting analyses to the Bivalent Avidity model of binding responses with a 10 min association and 15 min dissociation interaction time. The dissociation constant (Kd) values without avidity contribution were derived using the initial components of the association and dissociation rates (ka1 and kd1) respectively.

Man9-V3 glycopeptide [2] = target: T1, Man9-V3 glycopeptide; assay: BLI, biotinylated Man9-V3 on streptavidin sensors, antibody in solution
[3] = target: T2, cell surface membrane expressed CH848 TF Env trimer (CHO cells) (HIV-1 clade C (CH848 …)); assay: flow cytometry on CHO cells expressing CH848 TF Env trimer
T2 construct: also called cell surface membrane expressed gp160 trimers; CH848 Env trimer expressed on the cell surface of CHO cells

B1: DH270.6 (antibody, V domains shown)
VH: QVQLVQSGAQMKNPGASVKVSCAPSGYTFTDFYIHWLRQAPGQGLQWMGWMNPQTGRTNTARNFQGRVIMTRDTSIGTAYMELRSLTSDDTAIYYCTTGGWISLYYDSSYYPNFDHWGQGTLLTVSS
VL: TSLLTQPASVSGSPGQSITISCTGTKYDVGSHDLVSWYQQYPGKVPKYMIYEVNKRPSGVSNRFSGSKSGNTASLTISGLRAEDEADYYCCSFGGSATVVCGGGTKVTVL
notes: Recombinant IgG
Kd (Man9-V3 glycopeptide [1]): 188 nM

B2: DH270.IA3 (antibody, V domains shown)
VH: EVQLVESGPELKEPGASVKVSCKASGYTFTDYYIHWVRQAPGQGLEWMAWINPTTGRSSFARGFQGRVIMTRETSVSTAYMELRRLRSDDTAVYYCAKAGYIALYVDYSGYPNFNSWGQGTLVTVSS
VL: QSALTQPASVSGSPGQSITISCTGTSYDVGSYNLVSWYQQHPGKAPKLIIYEVSQWPSGVSKRFSGSKSGNTASLTISGLQAEDEAHYYCCSYAGSSTVIFGGGTSLTVL
Kd (Man9-V3 glycopeptide [2]): > 10000 nM

B3: DH270.IA4 (antibody, V domains shown)
VH: QVQLVQSGAEVKKPGASVKVSCKASGYTFTDYYIHWVRQAPGQGLEWMGWINPNTGRTNYAQKFQGRVTMTRDTSISTAYMELSRLRSDDTAVYYCARGGWIGLYYDSSGYPNFDYWGQGTLVTVSS
VL: B2 VL with I49M, Q55K, W56R, K62N, H87D, S106K
notes: Inferred intermediate, recombinant IgG; copies: 2 + 2
binding result [3]: no binding (tested: 5 µg/mL)

B4: DH270.IA2 (antibody, V domains shown)
VH: B3 VH with V11M, R87T, R98T
VL: B2 VL with L48Y, I49M, S54N, Q55K, W56R, K62N, H87D, S106K
notes: Inferred intermediate, recombinant IgG
binding result [3]: no binding (tested: 5 µg/mL)

B5: DH270.UCA (antibody, V domains shown)
VH: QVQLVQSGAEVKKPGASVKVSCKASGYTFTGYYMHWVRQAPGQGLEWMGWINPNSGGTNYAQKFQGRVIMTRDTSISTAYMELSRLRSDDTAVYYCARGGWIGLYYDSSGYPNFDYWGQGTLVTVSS
VL: B2 VL with Y27S, I49M, Q55K, W56R, K62N, H87D, S106K
notes: also called UCA4; DH270UCA4
binding result [3]: no binding (tested: 5 µg/mL)
